{"source": "the DeepSol protein solubility set"}
{"assay": "soluble on expression in E. coli; label from the status in PepcDB or PDB records"}
{"sequence": "MIGRKEKERERPYYRDPDDPEYIKDLQRPAVIKEDLSEMERRKRVQQILESKSFCHELEEVIRQECDTARTDPDHLQVLQKLSDLTVPQGNMSFGNLHTYGGNTIAIADLRGNEKYSKAERIQRNKLACLFRLADLFQWSQGIHNEISYRTNDEDNTFLMNPFGLLYHEITAATIVKIDENGKILDCGTLKAGVNQPAFLLHSAIYKAHPMVRCILHMHTAIVAAVASMKCGLLPLCKEAMVLGPVGYHDYQDIGDDDIQFDEIIANLGDKNVLFLRNQGFLVVGDTIEHATFLANNTVIACETQVRAARAGLDNLIIPEEKAIQRAFRNSRNTNSLKRNGTVDWRVGELEWESWMRVLDHANFQTGHVYRQPQLRPKSAMSTSMVNNNDVAVPPTTSAYGQIDETNLESVSAHRLALLRKEQERVRWMNSPNAYQKVEFLEYGADNPKKITKWVHDVNVPSASGTPVKISSVHQFSPASSNPKEFKEKQKAIKENNRLGTLSAGPQSQILDSVTYEDIALLIKPDNDGTVGQSSTADRAILIGTASKGIIDRQFQHHAQVYHQIYAPNPFSVETDADIKKYVDMVKAKNSQSAPVSARSGYSQYDEVEADTVSLMQGVREHKLSQAALSASDDGLNAGISPNNVRTSEESVNTSYMSQSVVFDYPDILRPIYRQETYV", "soluble on expression in E. coli": "not soluble"}
{"sequence": "MVQLNGKVAIVTGGAKGIGKAITVALAQEGAKVVINYNSSKEAAENLVNELGKEGHDVYAVQADVSKVEDANRLVEEAVNHFGKVDILVNNAGITRDRTFKKLNREDWERVIDVNLSSVFNTTSAVLPYITEAEEGRIISISSIIGQAGGFGQTNYSAAKAGMLGFTKSLALELAKTNVTVNAICPGFIDTEMVAEVPEEVRQKIVAKIPKKRFGQADEIAKGVVYLCRDGAYITGQQLNINGGLYM", "soluble on expression in E. coli": "not soluble"}
{"sequence": "ARKRAAGGEPRGRELRSQKSKAKSKARREEEEEDAFEDEKPPKKSLLSKVSQGKRKRGCSHPGGSADGPAKKKVAKVTVKSENLKVIKDEALSDGDDLRDFPSDLKKAHHLKRGATMNEDSNEEEEESENDWEEVEELSEPVLGDVRESTAFSRSLLPVKPVEIEIETPEQAKTRERSEKIKLEFETYLRRAMKRFNKGVHEDTHKVHLLCLLANGFYRNNICSQPDLHAIGLSIIPARFTRVLPRDVDTYYLSNLVKWFIGTFTVNAELSASEQDNLQTTLERRFAIYSARDDEELVHIFLLILRALQLLTRLVLSLQPIPLKSATAKGKKPSKERLTADPGGSSETSSQVLENHTKPKTSKGTKQEETFAKGTCRPSAKGKRNKGGRKKRSKPSSSEEDEGPGDKQEKATQRRPHGRERRVASRVSYKEESGSDEAGSGSDFELSSGEASDPSDEDSEPGPPKQRKAPAPQRTKAGSKSASRTHRGSHRKDPSLPVASSSSSSSKRGKKMCSDGEKAEKRSIAGIDQWLEVFCEQEEKWVCVDCVHGVVGQPLTCYKYATKPMTYVVGIDSDGWVRDVTQRYDPVWMTVTRKCRVDAEWWAETLRPYQSPFMDREKKEDLEFQAKHMDQPLPTAIGLYKNHPLYALKRHLLKYEAIYPETAAILGYCRGEAVYSRDCVHTLHSRDTWLKKARVVRLGEVPYKMVKGFSNRARKARLAEPQLREENDLGLFGYWQTEEYQPPVAVDGKVPRNEFGNVYLFLPSMMPIGCVQLNLPNLHRVARKLDIDCVQAITGFDFHGGYSHPVTDGYIVCEEFKDVLLTAWENEQAVIERKEKEKKEKRALGNWKLLAKGLLIRERLKRRYGPKSEAAAPHTDAGGGLSSDEEEGTSSQAEAARILAASWPQNREDEEKQKLKGGPKKTKREKKAAASHLFPFEKL", "soluble on expression in E. coli": "not soluble"}
{"sequence": "MTMTLHTKASGMALLHQIQGNELEPLNRPQLKIPLERPLGEVYLDSSKPAVYNYPEGAAYEFNAAAAANAQVYGQTGLPYGPGSEAAAFGSNGLGGFPPLNSVSPSPLMLLHPPPQLSPFLQPHGQQVPYYLENEPSGYTVREAGPPAFYRPNSDNRRQGGRERLASTNDKGSMAMESAKETRYCAVCNDYASGYHYGVWSCEGCKAFFKRSIQGHNDYMCPATNQCTIDKNRRKSCQACRLRKCYEVGMMKGGIRKDRRGGRMLKHKRQRDDGEGRGEVGSAGDMRAANLWPSPLMIKRSKKNSLALSLTADQMVSALLDAEPPILYSEYDPTRPFSEASMMGLLTNLADRELVHMINWAKRVPGFVDLTLHDQVHLLECAWLEILMIGLVWRSMEHPVKLLFAPNLLLDRNQGKCVEGMVEIFDMLLATSSRFRMMNLQGEEFVCLKSIILLNSGVYTFLSSTLKSLEEKDHIHRVLDKITDTLIHLMAKAGLTLQQQHQRLAQLLLILSHIRHMSNKGMEHLYSMKCKNVVPLYDLLLEMLDAHRLHAPTSRGGASVEETDQSHLATAGSTSSHSLQKYYITGEAEGFPATV", "soluble on expression in E. coli": "soluble"}
{"sequence": "MGSDKIHHHHHHMLNTIGERQKQLLKLLRGSRPGLSVDELSKGLEITRNAVRQHLSSLEGAGLVTAGNTRPSGGGRPQQLYVLTELGKESFPRQYSWLAQLVLASVRREEGVENMGKRLSEIGAGIAEQIRGQYPDLNTKEEKIDKLTEVMDQLGYNAKSATLPNGEKVIEADNCVFHQMAAKDMEICHLDRGLMETFTDSKVEQHECMARGGELCRFRFVSKKE", "soluble on expression in E. coli": "not soluble"}
{"sequence": "MPRVGIITSDFKFYHDVIKQLRLWKIPFVSLDLKGNIPDDVVVILSSIRDDIDLPDQVKAQDGLDGIRRAIPRLLNKTMFKDLTIGIDPGPKPGIAVFGDDVLLEAFECPTVFSVRKFVDSISMSYSYENITIKIGNGDRPNRDIIMNRLSDVDISIEVVNEKNTSTPHKIHDNALSAARIAQINGLYPIKRIPVKFSRKNVYEKEFVTLKNVIENAAGTEGRSSNST", "soluble on expression in E. coli": "not soluble"}
{"sequence": "MATALNPGRTSAPTPEAAPKLRFDARRYLGTPAVRRIKDEVEIELADRAYLPDLNDLKRDWVASVAAPAFRVLARNRATPPRAFASIGTGSGVDALAAIELLGAEIVGITDLFEEVVATAARNVRGNVRPEAGITLHAGAGDLLIPLAPAGVKFDVIYENLPNLPVDDSRKIEADKTSAAFLAPRSEAIPVFITDWLLTMHYLALVQARDALTPDGVVLSTVGARVPLDVLAQMSRAAGLVPRVLTYGWKVQADADDVISTYANWERQGLGPFRFYAADALEAAFANLDPGEAGANAATIEASLAGEQLGAVAAWEAHRSGLRIGHTYVVLQSGLGLEHHHHHH", "soluble on expression in E. coli": "soluble"}
{"sequence": "MSVVPVADVLQGRVAVDSEVTVRGWVRTRRDSKAGISFLAVYDGSCFDPVQAVINNSLPNYNEDVLRLTTGCSVIVTGKVVASPGQGQQFEIQASKVEVAGWVEDPDTYPMAAKRHSIEYLREVAHLRPRTNLIGAVARVRHTLAQALHRFFNEQGFFWVSTPLITASDTEGAGEMFRVSTLDLENLPRNDQGKVDFDKDFFGKESFLTVSGQLNGETYACALSKIYTFGPTFRAENSNTSRHLAEFWMLEPEVAFANLNDIAGLAEAMLKYVFKAVLEERADDMKFFAERVDKDAVSRLERFIEADFAQVDYTDAVTILENCGRKFENPVYWGVDLSSEHERYLAEEHFKAPVVVKNYPKDIKAFYMRLNEDGKTVAAMDVLAPGIGEIIGGSQREERLDVLDERMLEMGLNKEDYWWYRDLRRYGTVPHSGFGLGFERLIAYVTGVQNVRDVIPFPRTPRNASF", "soluble on expression in E. coli": "soluble"}
{"sequence": "QLFSNNLLQENAHKYVREVIGSIPNTQVIRDQLLEENNRKHIEVVLIGATVSPAQIDSAKTKLSSYGLSGVELNIKQGFGYEQEETDVNELKSVLLKDLYDNGEKIIRNQQRQIDSLRNVLNFYNRFSSMESEIAQELQ", "soluble on expression in E. coli": "not soluble"}
{"sequence": "KDLKIVMLTDIHLGKNLHENFLDKLITKVNLQSPDMVVIVGDLIDTNPKDLKNYISKLNDFNSTYGTFYALGNHEYYHGINEVLDLLRKHTNMKILVNQNLDLGFIDIAGLGDLAGLDRGLYAPDLARIKVDLNTSKASILLTHQPKTALLYDLSDFDLVLSGHTHGGQIFPFMFLV", "soluble on expression in E. coli": "not soluble"}
{"sequence": "MGSDKIHHHHHHMSSLPLQKSLYPLLRPLGAAYRVLMRARRRRYENGAACGTDVPCVSVGNIGWGGSGKTPVVQWLLQWAAVHGLHAVVLTRGYKASPPGLPYVVTPQSSAAHAGDEPLMLARSCPQATVVVDPVRSRSARWAQERLAPDFFVLDDGFQHVQVARDTDLVLLKKDDLHAEWGRVLPAGSWREGPEALSRAAAFCIKCGSGEFSGLVPDFENRLGSFGVPVFGFSLRPGALIPVCGAHEGAQLPAGAPYVLFSGVGDPAQVAVTVSSFLGYDPVRHHVFADHHGYTQADMDRMAGYGLPLVCTPKDAVKLTAPCGVPVWTLSLETNFHSVWNAQPPAGQAGEGFAQWWQCRWQRLAGLR", "soluble on expression in E. coli": "not soluble"}
